# Laboratory results from patent US20190015483A1 (CSL BEHRING RECOMBINANT FACILITY, published 2019).
# T1: recombinant Factor VIII (CSL627, rVIII-SingleChain) (Homo sapiens (Human), UniProt P00451 20-2351)
# T1 construct: also called FVIII
# T1 sequence: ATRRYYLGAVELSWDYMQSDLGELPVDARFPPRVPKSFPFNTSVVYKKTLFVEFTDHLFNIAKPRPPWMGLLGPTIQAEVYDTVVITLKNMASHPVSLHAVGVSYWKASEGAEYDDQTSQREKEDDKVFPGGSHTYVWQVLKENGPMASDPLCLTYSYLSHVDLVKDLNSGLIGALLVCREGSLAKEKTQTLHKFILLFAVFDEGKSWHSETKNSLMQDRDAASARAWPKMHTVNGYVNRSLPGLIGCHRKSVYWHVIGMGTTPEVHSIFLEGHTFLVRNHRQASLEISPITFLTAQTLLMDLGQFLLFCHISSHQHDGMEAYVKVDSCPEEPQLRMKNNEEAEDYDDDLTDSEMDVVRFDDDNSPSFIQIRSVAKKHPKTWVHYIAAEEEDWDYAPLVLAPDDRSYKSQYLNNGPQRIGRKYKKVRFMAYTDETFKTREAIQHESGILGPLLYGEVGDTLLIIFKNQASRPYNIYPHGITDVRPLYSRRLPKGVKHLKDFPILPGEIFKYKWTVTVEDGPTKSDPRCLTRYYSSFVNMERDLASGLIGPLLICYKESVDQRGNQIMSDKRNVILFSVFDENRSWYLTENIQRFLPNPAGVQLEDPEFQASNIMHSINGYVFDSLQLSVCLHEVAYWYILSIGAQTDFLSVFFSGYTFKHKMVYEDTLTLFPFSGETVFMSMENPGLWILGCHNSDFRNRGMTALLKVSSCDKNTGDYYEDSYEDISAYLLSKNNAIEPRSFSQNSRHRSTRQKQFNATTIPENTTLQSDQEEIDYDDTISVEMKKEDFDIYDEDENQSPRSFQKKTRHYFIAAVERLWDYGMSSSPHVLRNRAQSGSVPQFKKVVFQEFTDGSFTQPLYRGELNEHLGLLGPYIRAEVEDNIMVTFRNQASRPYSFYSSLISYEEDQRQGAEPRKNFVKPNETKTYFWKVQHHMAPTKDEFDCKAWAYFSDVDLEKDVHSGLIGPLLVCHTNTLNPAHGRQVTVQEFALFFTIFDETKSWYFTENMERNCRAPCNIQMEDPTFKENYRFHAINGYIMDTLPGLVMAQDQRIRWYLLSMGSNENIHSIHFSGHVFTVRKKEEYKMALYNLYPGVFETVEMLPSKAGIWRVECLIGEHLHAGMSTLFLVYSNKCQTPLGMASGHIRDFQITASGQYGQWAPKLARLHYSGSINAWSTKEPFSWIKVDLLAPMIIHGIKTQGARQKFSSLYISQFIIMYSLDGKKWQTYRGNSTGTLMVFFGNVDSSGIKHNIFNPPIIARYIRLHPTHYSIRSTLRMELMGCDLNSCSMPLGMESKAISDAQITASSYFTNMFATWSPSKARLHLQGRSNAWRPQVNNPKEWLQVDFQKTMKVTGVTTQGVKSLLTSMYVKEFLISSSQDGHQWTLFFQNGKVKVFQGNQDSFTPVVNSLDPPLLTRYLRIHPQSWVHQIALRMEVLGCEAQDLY
# Target: T1, recombinant Factor VIII (CSL627, …)
# Assay: SPR, anti-His capture
# Summary of the method: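 His-tagged mutants captured from culture medium (40–150 RU) on anti-His CM-5 surface at 37° C; FVIII injected 5 min, dissociation 5 min, at 1 nM in screening. Double-referenced sensorgrams fitted to a 1:1 kinetic model.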
Kd,koff,kon,Binder
0.0335 nM,0.000659 s⁻¹,1.97e+07 M⁻¹ s⁻¹,Hu-vWF[764-1270]-8His S766Y-K773M (other) SLYCRPPMVMLVCPADNLRAEGLECTKTCQNYDLECMSMGCVSGCLCPPGMVRHENRCVALERCPCFHQGKEYAPGETVKIGCNTCVCRDRKWNCTDHVCDATCSTIGMAHYLTFDGLKYLFPGECQYVLVQDYCGSNPGTFRILVGNKGCSHPSVKCKKRVTILVEGGEIELFDGEVNVKRPMKDETHFEVVESGRYIILLLGKALSVVWDRHLSISVVLKQTYQEKVCGLCGNFDGIQNNDLTSSNLQVEEDPVDFGNSWKVSSQCADTRKVPLDSSPATCHNNIMKQTMVDSSCRILTSDVFQDCNKLVDPEPYLDVCIYDTCSCESIGDCACFCDTIAAYAHVCAQHGKVVTWRTATLCPQSCEERNLRENGYECEWRYNSCAPACQVTCQHPEPLACPVQCVEGCHAHCPPGKILDELLQTCVDPEDCPVCEVAGRRFASGKKVTLNPSDPEHCQICHCDVVNLTCEACQEPGGLVVPPTDAPVSPTTLYVEDISEPPLHDFHHHHHHHH
0.0393 nM,0.000939 s⁻¹,2.39e+07 M⁻¹ s⁻¹,Hu-vWF[764-1270]-8His S766Y-K773Q (other) SLYCRPPMVQLVCPADNLRAEGLECTKTCQNYDLECMSMGCVSGCLCPPGMVRHENRCVALERCPCFHQGKEYAPGETVKIGCNTCVCRDRKWNCTDHVCDATCSTIGMAHYLTFDGLKYLFPGECQYVLVQDYCGSNPGTFRILVGNKGCSHPSVKCKKRVTILVEGGEIELFDGEVNVKRPMKDETHFEVVESGRYIILLLGKALSVVWDRHLSISVVLKQTYQEKVCGLCGNFDGIQNNDLTSSNLQVEEDPVDFGNSWKVSSQCADTRKVPLDSSPATCHNNIMKQTMVDSSCRILTSDVFQDCNKLVDPEPYLDVCIYDTCSCESIGDCACFCDTIAAYAHVCAQHGKVVTWRTATLCPQSCEERNLRENGYECEWRYNSCAPACQVTCQHPEPLACPVQCVEGCHAHCPPGKILDELLQTCVDPEDCPVCEVAGRRFASGKKVTLNPSDPEHCQICHCDVVNLTCEACQEPGGLVVPPTDAPVSPTTLYVEDISEPPLHDFHHHHHHHH
0.0494 nM,0.000861 s⁻¹,1.74e+07 M⁻¹ s⁻¹,Hu-vWF[764-1270]-8His S766Y-K773V (other) SLYCRPPMVVLVCPADNLRAEGLECTKTCQNYDLECMSMGCVSGCLCPPGMVRHENRCVALERCPCFHQGKEYAPGETVKIGCNTCVCRDRKWNCTDHVCDATCSTIGMAHYLTFDGLKYLFPGECQYVLVQDYCGSNPGTFRILVGNKGCSHPSVKCKKRVTILVEGGEIELFDGEVNVKRPMKDETHFEVVESGRYIILLLGKALSVVWDRHLSISVVLKQTYQEKVCGLCGNFDGIQNNDLTSSNLQVEEDPVDFGNSWKVSSQCADTRKVPLDSSPATCHNNIMKQTMVDSSCRILTSDVFQDCNKLVDPEPYLDVCIYDTCSCESIGDCACFCDTIAAYAHVCAQHGKVVTWRTATLCPQSCEERNLRENGYECEWRYNSCAPACQVTCQHPEPLACPVQCVEGCHAHCPPGKILDELLQTCVDPEDCPVCEVAGRRFASGKKVTLNPSDPEHCQICHCDVVNLTCEACQEPGGLVVPPTDAPVSPTTLYVEDISEPPLHDFHHHHHHHH
0.0335 nM,0.000469 s⁻¹,1.4e+07 M⁻¹ s⁻¹,Hu-vWF[764-1270]-8His S766Y-K773R (other) SLYCRPPMVRLVCPADNLRAEGLECTKTCQNYDLECMSMGCVSGCLCPPGMVRHENRCVALERCPCFHQGKEYAPGETVKIGCNTCVCRDRKWNCTDHVCDATCSTIGMAHYLTFDGLKYLFPGECQYVLVQDYCGSNPGTFRILVGNKGCSHPSVKCKKRVTILVEGGEIELFDGEVNVKRPMKDETHFEVVESGRYIILLLGKALSVVWDRHLSISVVLKQTYQEKVCGLCGNFDGIQNNDLTSSNLQVEEDPVDFGNSWKVSSQCADTRKVPLDSSPATCHNNIMKQTMVDSSCRILTSDVFQDCNKLVDPEPYLDVCIYDTCSCESIGDCACFCDTIAAYAHVCAQHGKVVTWRTATLCPQSCEERNLRENGYECEWRYNSCAPACQVTCQHPEPLACPVQCVEGCHAHCPPGKILDELLQTCVDPEDCPVCEVAGRRFASGKKVTLNPSDPEHCQICHCDVVNLTCEACQEPGGLVVPPTDAPVSPTTLYVEDISEPPLHDFHHHHHHHH
0.0224 nM,0.000269 s⁻¹,1.2e+07 M⁻¹ s⁻¹,Hu-vWF[764-1270]-8His S766Y-K773T (other) SLYCRPPMVTLVCPADNLRAEGLECTKTCQNYDLECMSMGCVSGCLCPPGMVRHENRCVALERCPCFHQGKEYAPGETVKIGCNTCVCRDRKWNCTDHVCDATCSTIGMAHYLTFDGLKYLFPGECQYVLVQDYCGSNPGTFRILVGNKGCSHPSVKCKKRVTILVEGGEIELFDGEVNVKRPMKDETHFEVVESGRYIILLLGKALSVVWDRHLSISVVLKQTYQEKVCGLCGNFDGIQNNDLTSSNLQVEEDPVDFGNSWKVSSQCADTRKVPLDSSPATCHNNIMKQTMVDSSCRILTSDVFQDCNKLVDPEPYLDVCIYDTCSCESIGDCACFCDTIAAYAHVCAQHGKVVTWRTATLCPQSCEERNLRENGYECEWRYNSCAPACQVTCQHPEPLACPVQCVEGCHAHCPPGKILDELLQTCVDPEDCPVCEVAGRRFASGKKVTLNPSDPEHCQICHCDVVNLTCEACQEPGGLVVPPTDAPVSPTTLYVEDISEPPLHDFHHHHHHHH
0.0785 nM,0.00138 s⁻¹,1.75e+07 M⁻¹ s⁻¹,Hu-vWF[764-1270]-8His S766Y-K773S (other) SLYCRPPMVSLVCPADNLRAEGLECTKTCQNYDLECMSMGCVSGCLCPPGMVRHENRCVALERCPCFHQGKEYAPGETVKIGCNTCVCRDRKWNCTDHVCDATCSTIGMAHYLTFDGLKYLFPGECQYVLVQDYCGSNPGTFRILVGNKGCSHPSVKCKKRVTILVEGGEIELFDGEVNVKRPMKDETHFEVVESGRYIILLLGKALSVVWDRHLSISVVLKQTYQEKVCGLCGNFDGIQNNDLTSSNLQVEEDPVDFGNSWKVSSQCADTRKVPLDSSPATCHNNIMKQTMVDSSCRILTSDVFQDCNKLVDPEPYLDVCIYDTCSCESIGDCACFCDTIAAYAHVCAQHGKVVTWRTATLCPQSCEERNLRENGYECEWRYNSCAPACQVTCQHPEPLACPVQCVEGCHAHCPPGKILDELLQTCVDPEDCPVCEVAGRRFASGKKVTLNPSDPEHCQICHCDVVNLTCEACQEPGGLVVPPTDAPVSPTTLYVEDISEPPLHDFHHHHHHHH
0.0984 nM,0.00507 s⁻¹,5.15e+07 M⁻¹ s⁻¹,Hu-vWF[764-1270]-8His S766Y-K773N (other) SLYCRPPMVNLVCPADNLRAEGLECTKTCQNYDLECMSMGCVSGCLCPPGMVRHENRCVALERCPCFHQGKEYAPGETVKIGCNTCVCRDRKWNCTDHVCDATCSTIGMAHYLTFDGLKYLFPGECQYVLVQDYCGSNPGTFRILVGNKGCSHPSVKCKKRVTILVEGGEIELFDGEVNVKRPMKDETHFEVVESGRYIILLLGKALSVVWDRHLSISVVLKQTYQEKVCGLCGNFDGIQNNDLTSSNLQVEEDPVDFGNSWKVSSQCADTRKVPLDSSPATCHNNIMKQTMVDSSCRILTSDVFQDCNKLVDPEPYLDVCIYDTCSCESIGDCACFCDTIAAYAHVCAQHGKVVTWRTATLCPQSCEERNLRENGYECEWRYNSCAPACQVTCQHPEPLACPVQCVEGCHAHCPPGKILDELLQTCVDPEDCPVCEVAGRRFASGKKVTLNPSDPEHCQICHCDVVNLTCEACQEPGGLVVPPTDAPVSPTTLYVEDISEPPLHDFHHHHHHHH
0.112 nM,0.00243 s⁻¹,2.16e+07 M⁻¹ s⁻¹,Hu-vWF[764-1270]-8His S766Y-K773P (other) SLYCRPPMVPLVCPADNLRAEGLECTKTCQNYDLECMSMGCVSGCLCPPGMVRHENRCVALERCPCFHQGKEYAPGETVKIGCNTCVCRDRKWNCTDHVCDATCSTIGMAHYLTFDGLKYLFPGECQYVLVQDYCGSNPGTFRILVGNKGCSHPSVKCKKRVTILVEGGEIELFDGEVNVKRPMKDETHFEVVESGRYIILLLGKALSVVWDRHLSISVVLKQTYQEKVCGLCGNFDGIQNNDLTSSNLQVEEDPVDFGNSWKVSSQCADTRKVPLDSSPATCHNNIMKQTMVDSSCRILTSDVFQDCNKLVDPEPYLDVCIYDTCSCESIGDCACFCDTIAAYAHVCAQHGKVVTWRTATLCPQSCEERNLRENGYECEWRYNSCAPACQVTCQHPEPLACPVQCVEGCHAHCPPGKILDELLQTCVDPEDCPVCEVAGRRFASGKKVTLNPSDPEHCQICHCDVVNLTCEACQEPGGLVVPPTDAPVSPTTLYVEDISEPPLHDFHHHHHHHH
